Measured values published in patent US12098164 (KOREA UNIVERSITY RESEARCH AND BUSINESS FOUNDATION, dated 2024).

Target: human serum albumin (HSA) (human, UniProt P02768 25-609)
Experiment: ELISA, HSA coated at 2 ug/ml, anti-His tag primary antibody and HRP secondary antibody, absorbance at 450 nm

human serum albumin (HSA), sequence (P02768 25-609 limits assumed): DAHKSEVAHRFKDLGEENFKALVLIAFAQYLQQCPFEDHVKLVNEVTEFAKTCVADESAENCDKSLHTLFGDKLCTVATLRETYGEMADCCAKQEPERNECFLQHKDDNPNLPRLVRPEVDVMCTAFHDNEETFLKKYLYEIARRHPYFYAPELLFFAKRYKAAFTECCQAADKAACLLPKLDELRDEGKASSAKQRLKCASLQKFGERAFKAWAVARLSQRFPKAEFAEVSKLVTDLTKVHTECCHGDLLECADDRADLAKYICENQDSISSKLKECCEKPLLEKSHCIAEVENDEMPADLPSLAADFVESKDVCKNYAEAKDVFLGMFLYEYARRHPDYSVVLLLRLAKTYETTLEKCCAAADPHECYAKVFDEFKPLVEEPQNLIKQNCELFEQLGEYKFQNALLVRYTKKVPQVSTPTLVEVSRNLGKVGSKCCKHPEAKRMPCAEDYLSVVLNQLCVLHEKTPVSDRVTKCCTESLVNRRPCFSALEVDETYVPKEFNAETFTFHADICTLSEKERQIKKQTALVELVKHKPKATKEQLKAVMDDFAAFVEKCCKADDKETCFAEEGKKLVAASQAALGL

B1: hepatitis B virus capsid protein nanoparticles (HBVC) (other)
chain: HHHHHHDIDPYKEFGASVELLSFLPSDFFPSIRDLLDTASALYREALESPEHCSPHHTALRQAILCWGELMNLATWVGSNLEDPASRELVVSYVNVNMGLKIRQLLWFHISCLTFGRETVLEYLVSFGVWIRTPPAYRPPNAPILSTLPETTVV
notes: also called HBVC (aff-, ABP-)
Q: Does B1 bind?
A: no binding (tested: 0.001 to 1.5 mg/ml tested)
